Data published in the RNAGym collection of RNA variant scans (doi:10.7554/elife.80360).

B1: HDV Ribozyme (parent)
chain: GGCCGGCAUGGUCCCAGCCUCCUCGCUGGCGCCGGCUGGGCAACAUUCCGAGGGGACCGUCCCCUCGGUAAUGGCGAAUGGGACCCA

Variants of: B1
Test: self-cleavage, relative activity (ratio to wild type); higher = more cleavage; co-transcriptional

Variant | self-cleavage
A51C C75G | 0.415
G52C G54A | 0.541
G52U C57U | 1.24
G52U C57G | 0.95
A51C A56C | 0.703
G52U G59C | 0.765
A51G G73U | 0.397
A51G G73C | 0.575
A51G G73A | 0.864
A51U U69G | 0.98
G52C G53C | 0.582
A51C G76A | 1.08
A51C G82C | 0.534
A51C G82A | 0.298
A51C G74A | 0.479
A51C G74U | 0.383
A51C G74C | 0.196
A51C G68U | 0.782
A51U G81U | 0.282
G50U U69A | 0.872
G50U U69G | 0.95

Variant | self-cleavage
A51U A87C | 0.959
A51U A87G | 0.965
A51U A56C | 0.851
G50U C85G | 0.872
G52A A83U | 0.475
G52A A83G | 0.85
G52A C61U | 0.879
A51G A78C | 0.318
A51G A78G | 0.674
G52C C62G | 0.383
A51C C62U | 1.08
G52U C75A | 0.148
A51U A71U | 1.01
A51G G55A | 0.972
G52A A77C | 0.309
G52A A77G | 0.89
G52C U72G | 0.723
G52C U72A | 0.872
A51G G76U | 0.942
A51G C61U | 0.889
G52U C61U | 0.936

Variant | self-cleavage
G52U C61A | 1.02
G52C G80A | 0.475
G52C G80U | 0.299
A51U A77C | 0.453
A51U A77U | 0.815
A51U A83U | 0.712
A51U A83C | 0.269
A51U A83G | 0.669
G52A G67A | 0.923
G52A G67C | 0.878
A51U G55U | 0.989
G50U G52U | 0.68
G50U G52A | 0.799
G52A G80U | 0.262
G52A G80C | 0.272
G52A G80A | 0.386
A51C A77C | 0.266
A51G A77G | 1.02
G52A G81A | 0.529
A51U C63A | 0.911
A51U A78C | 0.242

Variant | self-cleavage
G52C C57A | 0.817
G52C C57U | 0.991
G52C C57G | 0.866
G52A C86U | 0.816
G52A C86G | 1.04
G52C U60C | 0.966
A51C U65A | 1.04
A51C U65G | 0.937
G52U C86U | 1.02
G52U C86A | 0.926
A51G C62G | 0.739
A51G C62A | 0.812
G52U G53C | 0.672
G52U G53U | 0.733
A51C C58A | 0.779
A51C C58U | 0.95
A51C C58G | 1.02
A51G G52C | 0.789
G52U A56C | 0.815
G52C C66U | 0.965
G52C C66G | 0.672
